From patent US20220204603A1 (PHARMABCINE, published 2022)

B1: No. 3 anti-Ang2 antibody (IgG) (antibody, V domains shown)
VH: QMQLVQSGGGLVQPGRSLKLSCAASGFSFDDYAMHWVRQAPGKGLEWVATIKDDGSQTYYVDSVKGRFTISRDNAKSSLFLQMNSLRAEDTAVYYCTTEGLMNGLHFDMWGQGTMVTVSS
VL: LVLTQPPSVSGAPGQGVTISCTGSSSNIGAGYDVHWYQQFPGTAPKLLISGNNNRPSGLPDRFSGSKSGTSASLAITGLQAEDEADYYCQSYDSRLGVVFGGGTKLTVLG
notes: IgG form: VH cloned into Invivogen pfusess-hchg1 (heavy chain constant region), VL into Invivogen pfuse2ss-hclk (light chain constant region); Expressed in Expi293F, purified on Protein A; also called 1D10
B2: No. 41 anti-Ang2 antibody (IgG) (antibody, V domains shown)
VH: QVQLVESGGGLVQPGGSLRLSCEASGFAFGRYEMNWVRQAPGKGLEWIAYIDTGGGAKVYADSVKGRFTISRDDSKNSLYLQMNSLRAEDTAVYYCTTEGLMNGLHFDMWGQGTMITVSS
VL: DIQMTQSPSTLSASVGDRVAITCRASQAISTWLAWYQQKPGKAPKLLIYTASTLESGVPSRFSGSGSGTDFTLTINSLQPDDFATYYCQQLNSYPYTFGGGTKVEIKR
notes: IgG form: VH cloned into Invivogen pfusess-hchg1, VL into Invivogen pfuse2ss-hclk; also called 2B2
B3: No. 8 anti-Ang2 antibody (IgG) (antibody, V domains shown)
VH: QVQLVESGGGLVKPGGSLRLSCAASGFTFSSYSMNWVRQAPGKGLEWVSSISASDGATYYADSVRGRFTISRDNSRSTLYLQMNSLRAEDTAVYYCAKILAGYSGPMGGMDVWGQGTTVTVSS
VL: DIQMTQSPSSLSASVGDRVTITCRASRDISNYLAWYQQKPGKAPKSLIYGASNLQSGVSSQFSGSGSGTDFTLTINSLQPEDSATYYCQQYYSYPLTFGGGTKVDIKR
notes: IgG form: VH cloned into Invivogen pfusess-hchg1, VL into Invivogen pfuse2ss-hclk; also called 3A10
B4: No. 46 anti-Ang2 antibody (IgG) (antibody, V domains shown)
VH: QVQLVESGGGLVQPGRSLRLSCAASGFTFDDCAMHWVRQAPGKGLEWVSGISGNSKNVAYADSVKGRFSISRDDAKNSLYLQMNSLRAEDTAVYYCARDPAYSQFDYWGQGTLITVSS
VL: QSALTQPPSLSATPGQRVTISCSGSSSNVGGYPVNWYQQVPGAAPKLLMYTDYKRPSGVPDRFFGSKSGTSASLAISGLQSEDEADYYCATWDDNLNGYVFGTGTKVTVLG
notes: IgG form: VH cloned into Invivogen pfusess-hchg1, VL into Invivogen pfuse2ss-hclk; also called 3C6
B5: No. 4 anti-Ang2 antibody (IgG) (antibody, V domains shown)
VH: QVQLVESGAEVKRPGESLRISCKTSGYSFTSYWIHWVRQMPGKELEWMGSIYPGNSDTRYSPSFQGHVTISADSSSSTAYLQWSSLKASDTAMYYCTTEGLMNGLHFDMWGQGTMVTVSS
VL: DIVMTQTPLSLPVTPGEPASISCRSSQSLLHSLGDNYLDWYLQKPGQSPQLLIYLGSKRAAGVPDRFSGSGSGTDFTLKISRVEAEDVGVYYCMQSLQTPPYTFGQGTKLEIKR
notes: IgG form: VH cloned into Invivogen pfusess-hchg1, VL into Invivogen pfuse2ss-hclk; also called 2D8

Each binder was assayed against T1, human Ang2 (construct not stated) (human, UniProt O15123 19-496, limits assumed) (assay: cell-based or functional assay).
T1 sequence (looked up): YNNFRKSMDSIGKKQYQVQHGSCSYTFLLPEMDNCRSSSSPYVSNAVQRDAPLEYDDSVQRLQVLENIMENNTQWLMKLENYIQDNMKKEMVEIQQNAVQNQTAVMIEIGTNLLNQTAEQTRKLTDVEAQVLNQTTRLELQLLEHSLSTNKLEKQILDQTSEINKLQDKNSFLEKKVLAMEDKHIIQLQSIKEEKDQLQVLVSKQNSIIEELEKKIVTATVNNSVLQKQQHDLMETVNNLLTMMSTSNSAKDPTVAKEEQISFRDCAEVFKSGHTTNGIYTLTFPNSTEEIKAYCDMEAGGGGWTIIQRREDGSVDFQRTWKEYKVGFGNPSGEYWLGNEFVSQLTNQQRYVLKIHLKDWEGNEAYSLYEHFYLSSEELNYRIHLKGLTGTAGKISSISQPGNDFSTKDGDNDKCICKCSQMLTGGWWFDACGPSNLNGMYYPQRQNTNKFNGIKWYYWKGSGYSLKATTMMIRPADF

Row | Binder | IC50 of Tie2 phosphorylation (Phospho-Tie2 ELISA) in human Tie2-overexpressing cells treated with human Ang2 (5 µg/ml) preincubated with antibody [nM]
1 | B1 | 8.53
2 | B2 | 11
3 | B3 | 20.2
4 | B4 | 10.1
5 | B5 | 12.3

Each binder was assayed against T1, human Ang2 (construct not stated) (assay: SPR Biacore T200, antibody captured on protein A chip, Ang2 as analyte, 1:1 model).
Method: (§1) To analyze the binding affinity of the selected anti-Ang2 antibodies, affinity analysis for human Ang2 and mouse Ang2 was performed using BIACORE® T200 (GE Healthcare). A protein A sensor chip was used, and an experiment was conducted in accordance with the manufacturer's manual. Detailed analysis conditions are as follows. 2000 response units (RU) of protein A were immobilized, 25 RU of anti-Ang2 antibody candidates were used for binding, and various concentrations of human Ang2 and mouse Ang2 were allowed to bind. The starting concentrations for analysis are 100 nM and 150 nM, respectively. The analysis proceeded at a flow rate of 30 μl/min, the binding and dissociation time of human Ang2 was measured as 300 seconds and 2000 seconds, respectively, and the binding and dissociation time of mouse Ang2 was analyzed as 300 seconds and 1000 seconds, respectively. Analysis was performed using a 1:1 binding model as an analytical model.

Row | Binder | Kd [nM] | koff [s⁻¹] | kon [M⁻¹ s⁻¹]
6 | B1 | 0.127 | 4.22e-05 | 334000
7 | B2 | 0.243 | 7.77e-05 | 320000
8 | B3 | 0.163 | 4.37e-05 | 268000
9 | B4 | 0.314 | 8.62e-05 | 274000
10 | B5 | 0.217 | 5.93e-05 | 273000

Each binder was assayed against T2, mouse Ang2 (construct not stated) (mouse, UniProt O35608 19-496, limits assumed) in the same assay as above.
T2 construct: also called mAng2
T2 sequence (looked up): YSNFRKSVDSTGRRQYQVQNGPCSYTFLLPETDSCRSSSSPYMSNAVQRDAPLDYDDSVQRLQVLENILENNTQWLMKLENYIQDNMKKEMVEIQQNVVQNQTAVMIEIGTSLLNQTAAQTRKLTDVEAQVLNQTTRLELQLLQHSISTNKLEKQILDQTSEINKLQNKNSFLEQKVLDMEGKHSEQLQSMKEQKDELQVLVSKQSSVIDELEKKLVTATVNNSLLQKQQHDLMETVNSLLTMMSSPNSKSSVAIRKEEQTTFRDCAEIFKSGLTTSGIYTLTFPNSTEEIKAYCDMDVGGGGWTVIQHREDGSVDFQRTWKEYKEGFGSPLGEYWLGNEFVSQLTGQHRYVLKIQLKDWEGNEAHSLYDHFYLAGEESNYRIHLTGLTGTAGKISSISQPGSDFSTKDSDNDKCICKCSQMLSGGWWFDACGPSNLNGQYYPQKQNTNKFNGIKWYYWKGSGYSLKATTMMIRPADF
Method: as §1

Row | Binder | Kd [nM] | koff [s⁻¹] | kon [M⁻¹ s⁻¹]
11 | B1 | 0.538 | 8.53e-05 | 158000
12 | B2 | 0.328 | 9.47e-05 | 289000
13 | B3 | 0.463 | 6.69e-05 | 144000
14 | B4 | 0.193 | 8.94e-05 | 465000
15 | B5 | 0.45 | 7.05e-05 | 157000
